Source: US20050058697A1, “Cell penetrating therapeutic agents” (priority 2001, published 2005)

What was measured:
[1] = Association of AntpHD-Cw3 with liposomes (size exclusion chromatography, micro BCA protein assay, [3H]CHE lipid count); assay type: physicochemical; settings: for coupling efficiency: 10 mol % DOGS-NTA-Ni
Protocol: Formulations were incubated with AntpHD-Cw3, free peptide was separated from the associated peptide using size exclusion chromatography, amount of peptide (□) and lipid (●) was then determined for each fraction as described herein.
DOPC/Chol liposomes containing 0% (O) and 10% (▪) DOGS-NTA-Ni were incubated with AntpHD-Cw3 at various peptide to liposome ratio for 30 min. at room temperature. The amount of peptide bound was determined after the incubation period as described herein. Data presented represent averaged results obtained from three liposome preparations ±S.E.M.
200 μg of dialyzed AntpHD-Cw3 was incubated with 10 μmoles liposomes as described for FIGS. 2-4 (v/v) for 30 min. at room temperature under rotary shaking. The mixture was then loaded on a Biogel™ A 1.5 m chromatography column in order to remove the free peptide from peptide that was incorporated into the liposome. The peptide/liposome ratio was determined by quantifying liposomal lipid using [^3H]CHE. Radioactivity was measured by liquid scintillation counting on a Can berra-Packard scintillation P counter (1900 TR Tri Carb™), using Pico-fluor 40™ scintillation cocktail. The peptide was quantified using the micro BCA™ protein assay kit, after dissolving the liposomes in 0.5% triton. BSA was used as the standard for this analysis.

| Compound | immune response to the lipid alone | coupling efficiency ([1]; initial ratio 60 AntpHD-Cw3/μmole lipid) [%] | coupling efficiency ([1]; initial ratio 80 AntpHD-Cw3/μmole lipid) [%] | saturation of AntpHD-Cw3 binding ([1]; liposomes with 10 mol % DOGS-NTA-Ni, FIG. 3) |
| --- | --- | --- | --- | --- |
| CCCCCCCC/C=C\CCCCCCCC(=O)OC[C@H](COC(=O)CCC(=O)NCCCCC(C(=O)O)N(CC(=O)[O-])CC(=O)[O-])OC(=O)CCCCCCC/C=C\CCCCCCCC.[Ni+2] (stereo partly shown) [DOGS-NTA-Ni, 1,2-Dioleoyl-sn-glycero-3-{[n(5-amino-1-carboxypentyl)iminodiaceticacid]succinyl} (Nickel Salt)] | little in the way of a detectable immune response |  |  |  |
| AntpHD-Cw3: Antennapedia homeodomain fused to Cw3 epitope (170-179), with 10-histidine tag and 13-amino acid linker (SEQ ID NO:1) |  | 80 | 65 | around 50 μg AntpHD-Cw3/μmole liposomal lipid |
